Consider nine variants from the supplement of paper PMC10266784.

B1: library; numbered along this chain (parent)
chain: MAAAAAAAAEQQSSNGPVKKSMREKAVERRSVNKEHNSNFKAGYIPIDEDRLHKTGLRGRKGNLAICVIILLFILAVINLIITLVIWAVIRIGPNGCDSMEFHESGLLRFKQVSDMGVIHPLYKSTVGGRRNENLVITGNNQPIVFQQGTTKLSVENNKTSITSDIGMQFFDPRTQNILFSTDYETHEFHLPSGVKSLNVQKASTERITSNATSDLNIKVDGRAIVRGNEGVFIMGKTIEFHMGGNMELKAENSIILNGSVMVSTTRLPSSSSGDQLGSGDWVRYKLCMCADGTLFKVQVTSQNMGCQISDNPCGNTH

In this series the parent is B1. Put plainly: SGCB cell-surface expression functional score (HA stain, bin4 vs bin1, normalised to synonymous) (log10 ratio); higher = more cell-surface SGCB (functional). The gist of the method: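 The functional score is a log ratio of variant frequency in the highest versus the lowest intensity bin, expressed as a median over codons and duplicate transductions. Codon-saturation libraries of HA-tagged, YFP-fused human beta-sarcoglycan were transduced by lentivirus at MOI <0.1 into HEK293 cells stably expressing alpha-, gamma- and delta-sarcoglycan, and the cells were stained on ice with Alexa Fluor 647 anti-HA, fixed and sorted into four 5% intensity bins before amplicon sequencing. Synonymous variants were scaled to mean 0, SD 0.5 within each section.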
Consider MAAAAAAAAEQQSSNGPVKKSMREKAVERRSVNKEHNSNFKAGYIPIDEDRLHKTGLRGRKGNLAICVIILLFILAVINLIITLVIWAVIRIGPNGCDSMEFHESGLLTFKQVSDMGVIHPLYKSTVGGRRNENLVITGNNQPIVFQQGTTKLSVENNKTSITSDIGMQFFDPRTQNILFSTDYETHEFHLPSGVKSLNVQKASTERITSNATSDLNIKVDGRAIVRGNEGVFIMGKTIEFHMGGNMELKAENSIILNGSVMVSTTRLPSSSSGDQLGSGDWVRYKLCMCADGTLFKVQVTSQNMGCQISDNPCGNTH [R109T], for which the “SGCB cell-surface expression functional score (log10)” value amounted to 0.26.

Regarding MAAAAAAAAEQQSSNGPVKKSMREKAVERRSVNKEHNSNFKAGYIPIDEDRLHKTGLRGRKGNLAICVIILLFILAVINLIITLVIWAVIRIGPNGCDSMEFHESGLLSFKQVSDMGVIHPLYKSTVGGRRNENLVITGNNQPIVFQQGTTKLSVENNKTSITSDIGMQFFDPRTQNILFSTDYETHEFHLPSGVKSLNVQKASTERITSNATSDLNIKVDGRAIVRGNEGVFIMGKTIEFHMGGNMELKAENSIILNGSVMVSTTRLPSSSSGDQLGSGDWVRYKLCMCADGTLFKVQVTSQNMGCQISDNPCGNTH [R109S], the “SGCB cell-surface expression functional score (log10)” value is -0.09.

With MAAAAAAAAEQQSSNGPVKKSMREKAVERRSVNKEHNSNFKAGYIPIDEDRLHKTGLRGRKGNLAICVIILLFILAVINLIITLVIWAVIRIGPNGCDSMEFHESGLLYFKQVSDMGVIHPLYKSTVGGRRNENLVITGNNQPIVFQQGTTKLSVENNKTSITSDIGMQFFDPRTQNILFSTDYETHEFHLPSGVKSLNVQKASTERITSNATSDLNIKVDGRAIVRGNEGVFIMGKTIEFHMGGNMELKAENSIILNGSVMVSTTRLPSSSSGDQLGSGDWVRYKLCMCADGTLFKVQVTSQNMGCQISDNPCGNTH [R109Y], the “SGCB cell-surface expression functional score (log10)” value was -0.17.

With MAAAAAAAAEQQSSNGPVKKSMREKAVERRSVNKEHNSNFKAGYIPIDEDRLHKTGLRGRKGNLAICVIILLFILAVINLIITLVIWAVIRIGPNGCDSMEFHESGLLVFKQVSDMGVIHPLYKSTVGGRRNENLVITGNNQPIVFQQGTTKLSVENNKTSITSDIGMQFFDPRTQNILFSTDYETHEFHLPSGVKSLNVQKASTERITSNATSDLNIKVDGRAIVRGNEGVFIMGKTIEFHMGGNMELKAENSIILNGSVMVSTTRLPSSSSGDQLGSGDWVRYKLCMCADGTLFKVQVTSQNMGCQISDNPCGNTH [R109V], the “SGCB cell-surface expression functional score (log10)” value came to 0.1.

On to MAAAAAAAAEQQSSNGPVKKSMREKAVERRSVNKEHNSNFKAGYIPIDEDRLHKTGLRGRKGNLAICVIILLFILAVINLIITLVIWAVIRIGPNGCDSMEFHESGLLQFKQVSDMGVIHPLYKSTVGGRRNENLVITGNNQPIVFQQGTTKLSVENNKTSITSDIGMQFFDPRTQNILFSTDYETHEFHLPSGVKSLNVQKASTERITSNATSDLNIKVDGRAIVRGNEGVFIMGKTIEFHMGGNMELKAENSIILNGSVMVSTTRLPSSSSGDQLGSGDWVRYKLCMCADGTLFKVQVTSQNMGCQISDNPCGNTH [R109Q], for which the “SGCB cell-surface expression functional score (log10)” value is -0.31.

For the variant MAAAAAAAAEQQSSNGPVKKSMREKAVERRSVNKEHNSNFKAGYIPIDEDRLHKTGLRGRKGNLAICVIILLFILAVINLIITLVIWAVIRIGPNGCDSMEFHESGLLPFKQVSDMGVIHPLYKSTVGGRRNENLVITGNNQPIVFQQGTTKLSVENNKTSITSDIGMQFFDPRTQNILFSTDYETHEFHLPSGVKSLNVQKASTERITSNATSDLNIKVDGRAIVRGNEGVFIMGKTIEFHMGGNMELKAENSIILNGSVMVSTTRLPSSSSGDQLGSGDWVRYKLCMCADGTLFKVQVTSQNMGCQISDNPCGNTH [R109P], the “SGCB cell-surface expression functional score (log10)” value is -1.41.

As for MAAAAAAAAEQQSSNGPVKKSMREKAVERRSVNKEHNSNFKAGYIPIDEDRLHKTGLRGRKGNLAICVIILLFILAVINLIITLVIWAVIRIGPNGCDSMEFHESGLLWFKQVSDMGVIHPLYKSTVGGRRNENLVITGNNQPIVFQQGTTKLSVENNKTSITSDIGMQFFDPRTQNILFSTDYETHEFHLPSGVKSLNVQKASTERITSNATSDLNIKVDGRAIVRGNEGVFIMGKTIEFHMGGNMELKAENSIILNGSVMVSTTRLPSSSSGDQLGSGDWVRYKLCMCADGTLFKVQVTSQNMGCQISDNPCGNTH [R109W], the “SGCB cell-surface expression functional score (log10)” value came out at 0.09.

For the variant MAAAAAAAAEQQSSNGPVKKSMREKAVERRSVNKEHNSNFKAGYIPIDEDRLHKTGLRGRKGNLAICVIILLFILAVINLIITLVIWAVIRIGPNGCDSMEFHESGLLNFKQVSDMGVIHPLYKSTVGGRRNENLVITGNNQPIVFQQGTTKLSVENNKTSITSDIGMQFFDPRTQNILFSTDYETHEFHLPSGVKSLNVQKASTERITSNATSDLNIKVDGRAIVRGNEGVFIMGKTIEFHMGGNMELKAENSIILNGSVMVSTTRLPSSSSGDQLGSGDWVRYKLCMCADGTLFKVQVTSQNMGCQISDNPCGNTH [R109N], the “SGCB cell-surface expression functional score (log10)” value is -1.22.

As to MAAAAAAAAEQQSSNGPVKKSMREKAVERRSVNKEHNSNFKAGYIPIDEDRLHKTGLRGRKGNLAICVIILLFILAVINLIITLVIWAVIRIGPNGCDSMEFHESGLLMFKQVSDMGVIHPLYKSTVGGRRNENLVITGNNQPIVFQQGTTKLSVENNKTSITSDIGMQFFDPRTQNILFSTDYETHEFHLPSGVKSLNVQKASTERITSNATSDLNIKVDGRAIVRGNEGVFIMGKTIEFHMGGNMELKAENSIILNGSVMVSTTRLPSSSSGDQLGSGDWVRYKLCMCADGTLFKVQVTSQNMGCQISDNPCGNTH [R109M], the “SGCB cell-surface expression functional score (log10)” value was -0.41.
